# According to US20170015742A1 (published 2017):
# Molecular target: T1, human VEGF-A (human, UniProt P15692-4 27-191, limits assumed)
# T1 construct: also called huVEGF-A
# Assay: SPR (Biacore), antibody captured by anti-human Fc, VEGF-A injected
# Method: For example, approximately 9000 RU of goat anti-human Fc specific polyclonal antibody (Thermo Fisher Scientific Inc., Rockford, Ill.) diluted in 10 mM sodium acetate (pH 4.5) is directly immobilized across a CM5 research grade biosensor chip using a standard amine coupling kit according to manufacturer's instructions and procedures at 25 μg/ml. Unreacted moieties on the biosensor surface were blocked with ethanolamine. For kinetic analysis, rate equations derived from the 1:1 Langmuir binding model were fitted simultaneously to multiple antigen injections (using global fit analysis) with the use of Scrubber 2 (BioLogic Software), Biacore Biaevaluation 4.0.1 software or Biacore T100 Evaluation software. Purified antibodies or DVD-Ig molecules were diluted in running buffer for capture across goat anti-human Fc reaction surfaces. Antibodies or DVD-Ig molecules to be captured as a ligand (1 μg/ml) were injected over reaction matrices at a flow rate of 10 μl/minute. During the assay, all measurements were referenced against the capture surface alone (i.e., with no captured antibody or DVD-Ig molecule). […] The equilibrium dissociation constant KD (M) of the reaction between antibodies and the target antigen was then calculated from the kinetic rate constants by the following formula: KD=Koff/Kₒₙ. Binding was recorded as a function of time and kinetic rate constants were calculated.
# T1 sequence (P15692 other isoform, or with tags, fused parts or gaps limits assumed): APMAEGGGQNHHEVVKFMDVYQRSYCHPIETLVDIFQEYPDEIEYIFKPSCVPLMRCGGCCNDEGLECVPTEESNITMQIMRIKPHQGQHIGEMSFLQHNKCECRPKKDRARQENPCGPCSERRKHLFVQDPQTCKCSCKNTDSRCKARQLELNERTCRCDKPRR
Binder,Kd,kon
"hBDB-4G8.13 (antibody, V domains shown, Humanized IgG made from pHybE vectors in HEK293 cells) VH: EIQLVQSGTEVKKPGESLKISCKASGYTFTNYGMYWVKQMPGKGLEYMGWINTETGKPTYADDFKGRFTFSLDKSFNTAFLQWSSLKASDTAMYFCARTNYYYRSYIFYFDYWGQGTMVTVSS VL: ETVLTQSPATLSVSPGERATLSCRASESVSTHMHWYQQKPGQAPRLLIYGASNLESGVPARFSGSGSGTDFTLTISSLQSEDFAVYFCQQSWNDPFTFGQGTRLEIK",7.6 pM,2.2e+07 M⁻¹ s⁻¹
"hBDB-4G8.14 (antibody, V domains shown, Humanized IgG made from pHybE vectors in HEK293 cells) VH: EIQLVQSGGGVVQPGGSLRLSCAASGYTFTNYGMYWVKQAPGKGLEYMGWINTETGKPTYADDFKGRFTFSLDTSKSTAYLQLNSLRAEDTAVYFCARTNYYYRSYIFYFDYWGQGTLVTVSS VL: DTVLTQSPSTLSASPGERATISCRASESVSTHMHWYQQKPGQAPKLLIYGASNLESGVPSRFSGSRSGTDFTLTISSLQPEDFAVYFCQQSWNDPFTFGQGTKVEIK",3.7 pM,1.5e+07 M⁻¹ s⁻¹
"hBEW-9A8.20 (antibody, V domains shown, Humanized IgG made from pHybE vectors in HEK293 cells) VH: EIQLVQSGAEVKKPGASVKVSCKASGYTFTNYGMYWVKQAPGQGLEYMGWINTETGKPIYADDFKGRFTFTLDTSTSTAYMELRSLRSDDTAVYYCARVDYDGSFWFAYWGQGTLVTVSS VL: ETVLTQSPATLSLSPGERATLSCRASESVSTVIHWYQQKPGQQPRLLIHGASNLESGVPARFSGSGSGTDFTLTISSLEPEDFAVYFCQQHWNDPPTFGQGTKLEIK",1.6 pM,7.6e+06 M⁻¹ s⁻¹
"hBDB-4G8.15 (antibody, V domains shown, Humanized IgG made from pHybE vectors in HEK293 cells) VH: EVQLVESGGGLVQPGGSLRLSCAASGYTFTNYGMYWVKQAPGKGLEYMGWINTETGKPTYADDFKGRFTFSLDTSKSTAYLQMNSLRAEDTAVYFCARTNYYYRSYIFYFDYWGQGTLVTVSS VL: DTQLTQSPSSLSASVGDRVTISCRASESVSTHMHWYQQKPGKAPKLLIYGASNLESGVPSRFSGSGSGTDFTLTISSLQPEDFATYFCQQSWNDPFTFGQGTKVEIK",4.4 pM,2e+07 M⁻¹ s⁻¹
"hBDB-4G8.1 (antibody, V domains shown, Humanized IgG made from pHybE vectors in HEK293 cells) VH: EVQLVQSGSELKKPGASVKVSCKASGYTFTNYGMYWVRQAPGQGLEWMGWINTETGKPTYADDFKGRFVFSLDTSVSTAYLQISSLKAEDTAVYYCARTNYYYRSYIFYFDYWGQGTMVTVSS VL: AIQLTQSPSSLSASVGDRVTITCRASESVSTHMHWYQQKPGKAPKLLIYGASNLESGVPSRFSGSGSGTDFTLTISSLQPEDFATYYCQQSWNDPFTFGQGTKLEIK",5.8 pM,1.8e+07 M⁻¹ s⁻¹
"hBDB-4G8.7 (antibody, V domains shown, Humanized IgG made from pHybE vectors in HEK293 cells) VH: EVQLVQSGAEVKKPGASVKVSCKASGYTFTNYGMYWVRQAPGQGLEWMGWINTETGKPTYADDFKGRVTMTTDTSTSTAYMELRSLRSDDTAVYYCARTNYYYRSYIFYFDYWGQGTMVTVSS VL: AIQLTQSPSSLSASVGDRVTITCRASESVSTHMHWYQQKPGKAPKLLIYGASNLESGVPSRFSGSGSGTDFTLTISSLQPEDFATYYCQQSWNDPFTFGQGTKLEIK",34 pM,3.7e+07 M⁻¹ s⁻¹
"hBEW-9A8.11 (antibody, V domains shown, Humanized IgG made from pHybE vectors in HEK293 cells) VH: EVQLVQSGAEVKKPGASVKVSCKASGYTFTNYGMYWVRQAPGQGLEWMGWINTETGKPIYADDFKGRVTMTTDTSTSTAYMELRSLRSDDTAVYYCARVDYDGSFWFAYWGQGTLVTVSS VL: DIQMTQSPSSLSASVGDRVTITCRASESVSTVIHWYQQKPGKAPKLLIYGASNLESGVPSRFSGSGSGTDFTLTISSLQPEDFATYYCQQHWNDPPTFGQGTKLEIK",74 pM,1.5e+07 M⁻¹ s⁻¹
"hBDB-4G8.2 (antibody, V domains shown, Humanized IgG made from pHybE vectors in HEK293 cells) VH: EVQLVQSGSELKKPGASVKVSCKASGYTFTNYGMYWVRQAPGQGLEWMGWINTETGKPTYADDFKGRFVFSLDTSVSTAYLQISSLKAEDTAVYYCARTNYYYRSYIFYFDYWGQGTMVTVSS VL: ATQLTQSPSLSASVGDRVTITCRASESVSTHMHWYQQKPGKQPKLLIYGASNLESGVPSRFSGSGSGTDFTLTISSLQPEDFATYFCQQSWNDPFTFGQGTKLEIK",3.6 pM,1.7e+07 M⁻¹ s⁻¹
"hBDB-4G8.10 (antibody, V domains shown, Humanized IgG made from pHybE vectors in HEK293 cells) VH: EIQLVQSGAEVKKPGASVKVSCKASGYTFTNYGMYWVRQAPGQGLEYMGWINTETGKPTYADDFKGRFTFTLDTSTSTAYMELRSLRSDDTAVYFCARTNYYYRSYIFYFDYWGQGTMVTVSS VL: AIQLTQSPSSLSASVGDRVTITCRASESVSTHMHWYQQKPGKAPKLLIYGASNLESGVPSRFSGSGSGTDFTLTISSLQPEDFATYYCQQSWNDPFTFGQGTKLEIK",8.1 pM,2.7e+07 M⁻¹ s⁻¹
"hBDB-4G8.3 (antibody, V domains shown, Humanized IgG made from pHybE vectors in HEK293 cells) VH: EVQLVQSGSELKKPGASVKVSCKASGYTFTNYGMYWVRQAPGQGLEWMGWINTETGKPTYADDFKGRFVFSLDTSVSTAYLQISSLKAEDTAVYYCARTNYYYRSYIFYFDYWGQGTMVTVSS VL: DTVLTQSPATLSLSPGERATLSCRASESVSTHMHWYQQKPGQAPRLLIYGASNLESGVPARFSGSGSGTDFTLTISSLEPEDFAVYFCQQSWNDPFTFGQGTKLEIK",4.8 pM,1e+07 M⁻¹ s⁻¹
"hBDB-4G8.4 (antibody, V domains shown, Humanized IgG made from pHybE vectors in HEK293 cells) VH: EIQLVQSGSELKKPGASVKVSCKASGYTFTNYGMYWVRQAPGQGLEYMGWINTETGKPTYADDFKGRFVFSLDTSVSTAYLQISSLKAEDTAVYFCARTNYYYRSYIFYFDYWGQGTMVTVSS VL: AIQLTQSPSSLSASVGDRVTITCRASESVSTHMHWYQQKPGKAPKLLIYGASNLESGVPSRFSGSGSGTDFTLTISSLQPEDFATYYCQQSWNDPFTFGQGTKLEIK",5.5 pM,2.7e+07 M⁻¹ s⁻¹
"hBDB-4G8.6 (antibody, V domains shown, Humanized IgG made from pHybE vectors in HEK293 cells) VH: EIQLVQSGSELKKPGASVKVSCKASGYTFTNYGMYWVRQAPGQGLEYMGWINTETGKPTYADDFKGRFVFSLDTSVSTAYLQISSLKAEDTAVYFCARTNYYYRSYIFYFDYWGQGTMVTVSS VL: DTVLTQSPATLSLSPGERATLSCRASESVSTHMHWYQQKPGQAPRLLIYGASNLESGVPARFSGSGSGTDFTLTISSLEPEDFAVYFCQQSWNDPFTFGQGTKLEIK",1.4 pM,2.6e+07 M⁻¹ s⁻¹
"hBEW-9A8.12 (antibody, V domains shown, Humanized IgG made from pHybE vectors in HEK293 cells) VH: EVQLVQSGAEVKKPGASVKVSCKASGYTFTNYGMYWVRQAPGQGLEWMGWINTETGKPIYADDFKGRVTMTTDTSTSTAYMELRSLRSDDTAVYYCARVDYDGSFWFAYWGQGTLVTVSS VL: DTQLTQSPSSLSASVGDRVTITCRASESVSTVIHWYQQKPGKQPKLLIHGASNLESGVPSRFSGSGSGTDFTLTISSLQPEDFATYFCQQHWNDPPTFGQGTKLEIK",15 pM,9.6e+06 M⁻¹ s⁻¹
"hBDB-4G8.5 (antibody, V domains shown, Humanized IgG made from pHybE vectors in HEK293 cells) VH: EIQLVQSGSELKKPGASVKVSCKASGYTFTNYGMYWVRQAPGQGLEYMGWINTETGKPTYADDFKGRFVFSLDTSVSTAYLQISSLKAEDTAVYFCARTNYYYRSYIFYFDYWGQGTMVTVSS VL: ATQLTQSPSLSASVGDRVTITCRASESVSTHMHWYQQKPGKQPKLLIYGASNLESGVPSRFSGSGSGTDFTLTISSLQPEDFATYFCQQSWNDPFTFGQGTKLEIK",1.6 pM,2.5e+07 M⁻¹ s⁻¹
"hBDB-4G8.8 (antibody, V domains shown, Humanized IgG made from pHybE vectors in HEK293 cells) VH: EVQLVQSGAEVKKPGASVKVSCKASGYTFTNYGMYWVRQAPGQGLEWMGWINTETGKPTYADDFKGRVTMTTDTSTSTAYMELRSLRSDDTAVYYCARTNYYYRSYIFYFDYWGQGTMVTVSS VL: ATQLTQSPSLSASVGDRVTITCRASESVSTHMHWYQQKPGKQPKLLIYGASNLESGVPSRFSGSGSGTDFTLTISSLQPEDFATYFCQQSWNDPFTFGQGTKLEIK",47 pM,1.8e+07 M⁻¹ s⁻¹
"hBDB-4G8.11 (antibody, V domains shown, Humanized IgG made from pHybE vectors in HEK293 cells) VH: EIQLVQSGAEVKKPGASVKVSCKASGYTFTNYGMYWVRQAPGQGLEYMGWINTETGKPTYADDFKGRFTFTLDTSTSTAYMELRSLRSDDTAVYFCARTNYYYRSYIFYFDYWGQGTMVTVSS VL: ATQLTQSPSLSASVGDRVTITCRASESVSTHMHWYQQKPGKQPKLLIYGASNLESGVPSRFSGSGSGTDFTLTISSLQPEDFATYFCQQSWNDPFTFGQGTKLEIK",1.3 pM,2.6e+07 M⁻¹ s⁻¹
"hBDB-4G8.9 (antibody, V domains shown, Humanized IgG made from pHybE vectors in HEK293 cells) VH: EVQLVQSGAEVKKPGASVKVSCKASGYTFTNYGMYWVRQAPGQGLEWMGWINTETGKPTYADDFKGRVTMTTDTSTSTAYMELRSLRSDDTAVYYCARTNYYYRSYIFYFDYWGQGTMVTVSS VL: DTVLTQSPATLSLSPGERATLSCRASESVSTHMHWYQQKPGQAPRLLIYGASNLESGVPARFSGSGSGTDFTLTISSLEPEDFAVYFCQQSWNDPFTFGQGTKLEIK",62 pM,1.4e+07 M⁻¹ s⁻¹
"hBDB-4G8.12 (antibody, V domains shown, Humanized IgG made from pHybE vectors in HEK293 cells) VH: EIQLVQSGAEVKKPGASVKVSCKASGYTFTNYGMYWVRQAPGQGLEYMGWINTETGKPTYADDFKGRFTFTLDTSTSTAYMELRSLRSDDTAVYFCARTNYYYRSYIFYFDYWGQGTMVTVSS VL: DTVLTQSPATLSLSPGERATLSCRASESVSTHMHWYQQKPGQAPRLLIYGASNLESGVPARFSGSGSGTDFTLTISSLEPEDFAVYFCQQSWNDPFTFGQGTKLEIK",1.2 pM,2.6e+07 M⁻¹ s⁻¹
"hBEW-9A8.9 (antibody, V domains shown, Humanized IgG made from pHybE vectors in HEK293 cells) VH: EVQLVQSGAEVKKPGASVKVSCKASGYTFTNYGMYWVRQAPGQGLEWMGWINTETGKPIYADDFKGRVTMTTDTSTSTAYMELRSLRSDDTAVYYCARVDYDGSFWFAYWGQGTLVTVSS VL: EIVLTQSPDFQSVTPKEKVTITCRASESVSTVIHWYQQKPDQSPKLLIKGASNLESGVPSRFSGSGSGTDFTLTINSLEAEDAATYYCQQHWNDPPTFGQGTKLEIK",820 pM,1e+07 M⁻¹ s⁻¹
